Experiment [1] deals with human Trop-2 on cells (human) (UniProt P09758). In words: cell binding on NCI-N87, anti-mouse-HRP, luminescence.
Experiment [2] shares this target. In words: cell-based or functional assay.
The target is the same in experiment [3]. Briefly: cell binding assay; cell line not stated.
In experiment [4] the target is recombinant human neonatal receptor (FcRn) (human) (UniProt P55899). Briefly: SPR (BIACORE), FcRn on low-density chip, three runs at 400 to 25 nM.
Experiment [5] addresses rhTrop-2/TACSTD2 (Sino Biological, Inc.) (human) (UniProt P09758). Briefly: SPR (BIACORE), Trop-2 on chip.
Experiment [6] deals with recombinant human neonatal receptor (FcRn) (human) (UniProt P55899). Briefly: SPR (BIACORE), FcRn on chip. On the technique in general: Surface plasmon resonance follows binding to a sensor surface in real time, without labels.
Experiment [7] concerns the target rhTrop-2/TACSTD2 (Sino Biological, Inc.) (human) (UniProt P09758). In words: SPR (BIACORE), recombinant human Trop-2 on low-density CM5 chip, 1:1 model, three runs.
The target of experiment [8] is Recombinant human Trop-2 with a His-tag (Sino Biological, Cat#10428-H09H) (human) (UniProt P09758). In words: ELISA on His-tagged recombinant human Trop-2 captured on Ni-NTA strips. A general note: An ELISA detects its analyte on a solid surface through an enzyme-linked reagent.
Recombinant human Trop-2 with a His-tag (Sino Biological, Cat#10428-H09H) (human), sequence (P09758 27-274 limits assumed): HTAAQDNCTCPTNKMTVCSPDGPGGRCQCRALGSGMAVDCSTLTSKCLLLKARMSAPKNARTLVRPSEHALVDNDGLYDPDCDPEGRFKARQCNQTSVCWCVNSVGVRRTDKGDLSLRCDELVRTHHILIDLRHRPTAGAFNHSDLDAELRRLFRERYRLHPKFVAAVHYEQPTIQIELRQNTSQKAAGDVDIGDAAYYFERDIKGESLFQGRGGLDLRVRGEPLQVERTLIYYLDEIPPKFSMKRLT

recombinant human neonatal receptor (FcRn) (human), sequence (P55899 24-297 limits assumed, chain 1 of 2): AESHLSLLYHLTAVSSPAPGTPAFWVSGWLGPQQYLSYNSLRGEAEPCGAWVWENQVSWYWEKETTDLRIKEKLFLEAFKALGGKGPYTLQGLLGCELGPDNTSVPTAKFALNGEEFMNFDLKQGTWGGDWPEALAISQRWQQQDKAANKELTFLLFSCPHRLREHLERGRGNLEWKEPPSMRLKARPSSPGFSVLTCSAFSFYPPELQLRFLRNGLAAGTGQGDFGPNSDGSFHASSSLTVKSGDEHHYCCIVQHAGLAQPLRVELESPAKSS
recombinant human neonatal receptor (FcRn) (human), sequence (P61769 21-119 limits assumed, chain 2 of 2, further chain): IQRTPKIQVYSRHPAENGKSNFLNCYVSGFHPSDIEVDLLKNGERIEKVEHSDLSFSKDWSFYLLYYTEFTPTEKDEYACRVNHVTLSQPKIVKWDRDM
human Trop-2 on cells (human), sequence (P09758 27-323): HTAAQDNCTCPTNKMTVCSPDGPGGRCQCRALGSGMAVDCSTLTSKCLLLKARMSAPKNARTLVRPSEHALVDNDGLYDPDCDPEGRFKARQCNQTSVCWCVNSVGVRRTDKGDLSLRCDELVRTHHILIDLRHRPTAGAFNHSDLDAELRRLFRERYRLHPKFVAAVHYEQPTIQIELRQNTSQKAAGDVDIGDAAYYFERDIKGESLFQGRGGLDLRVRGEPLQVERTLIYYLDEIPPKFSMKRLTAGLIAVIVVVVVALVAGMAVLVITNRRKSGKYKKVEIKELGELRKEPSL
rhTrop-2/TACSTD2 (Sino Biological, Inc.) (human), sequence (P09758 27-274 limits assumed): as the sequence (P09758 27-274 limits assumed) above

One may read the Kd as the equilibrium constant for the complex coming apart. In experiment [1], “MAB650 murine anti-Trop-2 monoclonal antibody (R&D Systems)” had a BMax (relative luminescent units) of 6020, a Kd of 0.49 nM and a reduction of maximum binding (Bmax) compared to RS7 of 50%.

In experiment [2], “hA20 anti-CD20-SN38 conjugate (antibody)” had a γH2AX induction in BxPC-3, Mean Fluorescence Intensity of 2250 MFI and a γH2AX induction in BxPC-3, Percent Positive of 12.7%.

In the case of “Sacituzumab govitecan (IMMU-132, also known as hRS7-CL2A-SN-38) (antibody)”, the dissociation constant Kd in experiment [3] is 1.2 nM. The dissociation constant Kd in experiment [4] was 192 nM. The fold improvement in KD compared to naked hRS7 in experiment [5] worked out at 2 fold. In experiment [6], the fold lower average binding level than hRS7 was determined as 2 fold. Further, in experiment [2], the ADCC, specific lysis of MDA-MB-468 by PBMCs (E:T 50:1, 33.3 nM) is 8.6%; the Median fluorescence intensity of phospho-H2AX staining (dsDNA breaks), HCC1806 (Trop-2+), after 30 min at 4° C., wash and overnight culture came to 546 MFI; the γH2AX induction in BxPC-3, Mean Fluorescence Intensity turned out to be 5350 MFI; the γH2AX induction in BxPC-3, Percent Positive is 69%. The Kd in experiment [7] was determined as 0.26 nM.

As to “humanized RS7 (hRS7) anti-Trop-2 antibody”, the dissociation constant (Kd) came to 0.3 nM in experiment [8], 92.4 nM in experiment [4] and 0.51 nM in experiment [7]. Also, the ADCC, specific lysis of BxPC-3 by PBMCs (E:T 100:1, 33.3 nM) in experiment [2] came to 8.5%. Besides, in experiment [2], the ADCC, specific lysis of MDA-MB-468 by PBMCs (E:T 50:1, 33.3 nM) amounted to 29.8%.

As for “162-46.2 murine anti-Trop-2 monoclonal antibody”, in experiment [1], the BMax (relative luminescent units) was determined as 8470, the Kd turned out to be 0.52 nM and the reduction of maximum binding (Bmax) compared to RS7 turned out to be 25%.

(Values after patent US20160193357A1.)
